Source: paper PMC6037669, “Optimization of a MT1-MMP-targeting Peptide and Its Application in Near-infrared Fluorescence Tumor Imaging” (Scientific Reports, 2018)

B1: MT1-AF7p-H4R (peptide)
peptide: HWKRLHNTKTFL
notes: MT1-AF7p with histidine 4 changed to arginine (rational design by docking); In the AFM experiments coupled covalently to the tip through an NHS-PEG18-aldehyde linker; also called optimized peptide; peptidomimetic; source: synthetic peptide, bought: GL Biochem Ltd. (Shanghai)
B2: MT1-AF7p (peptide)
peptide: HWKHLHNTKTFL
notes: In the AFM experiments coupled covalently to the tip through an NHS-PEG18-aldehyde linker; In the in vivo imaging Cy5.5 was conjugated to the N-terminus; also called original peptide; original ligand; source: synthetic peptide (solid-phase, Fmoc chemistry, HPLC purified)
B3: MT1-AF7p-H4K (peptide)
peptide: HWKKLHNTKTFL
notes: MT1-AF7p with histidine 4 changed to lysine (rational design by docking); In the AFM experiments coupled covalently to the tip through an NHS-PEG18-aldehyde linker; also called optimized peptide; peptidomimetic; source: synthetic peptide, bought: GL Biochem Ltd. (Shanghai)

Assays:
Conditions in all cases: both partners purified
[1] = molecular target: T1, MT1-160p (human); assay: atomic force microscopy (single-molecule recognition force spectroscopy); peptide covalently on the AFM tip through NHS-PEG18-aldehyde; MT1-160p immobilised on APTES-treated mica; PBS
T1 construct: peptide of MT1-MMP (MMP14) that holds the MT-Loop (Tyr164-Gln174); source: synthetic peptide, bought: GL Biochem Ltd. (Shanghai)
T1 peptide: REVPYAYIREGHEKQ

[2] = molecular target: T2, recombinant human MT1-MMP catalytic domain (human, UniProt P50281 114-287); assay: ITC; MicroCal ITC-200, 25 °C, 10 mM HEPES, 150 mM NaCl, pH 7.4; results and legend: peptides injected into MT1-MMP; methods: MT1-160p (1 mM) in the syringe into binding peptides (0.1 mM) in the cell; one-site binding model
T2 construct: MT1-MMP (MMP14), human, catalytic domain (20 kDa); PDB 1BQQ chain M is the catalytic domain structure used for the docking, not necessarily the same limits; also called Membrane type 1 metalloproteinase; MMP14

[3] = molecular target: T2, recombinant human MT1-MMP catalytic …; assay: atomic force microscopy (single-molecule recognition force spectroscopy); peptide covalently on the AFM tip through NHS-PEG18-aldehyde; MT1-MMP immobilised on APTES-treated mica; PBS; 25 °C; control with free excess peptide (1 mmol/L)

Row | Binder | binding result [1] | Ka [2] [M⁻¹] | dH [2] [kcal/mol] | stoichiometry N [2] | retraction force (peak position of the histogram) [3] [pN]
1 | B1 | binds | 175000 | -0.29 | 1.14 | 260
2 | B2 | binds | 107000 |  |  | 150
3 | B3 | binds |  |  |  | 166
